Measured values taken from the supplement of paper PMC10126150.
± gives the standard deviation of the averaged measurements.

Tested on: ATP
Assay: switch fluorescence ratio, 500 uM ATP over buffer (Cy3 cluster intensity, sum of 5 cycles each) (fold (ratio)); higher = stronger signal-on switching upon ATP binding; sequences stand for … in TCGTCGGCAGCGTCAGATGTGTATAAGAGACAGTTTTTTTTTTTTTTTTTTTTTTTTT…TC
Details: aptamer strand: ATP DNA aptamer (quencher-CACCTGGGGGAGTATTGCGGAGGAAGG + anchor), 100 nM annealed; ATP concentration: 500 uM
Summary of the method: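 Imaging in selection buffer was followed by imaging after 15 min with 500 uM ATP at 22 °C, for Cy3-labelled switching-strand clusters annealed to 100 nM quencher-labelled ATP aptamer on a modified Illumina MiSeq flow-cell. Five of these buffer/ATP cycles ran, separated by NaOH stripping and re-annealing. The fluorescence ratio per cluster is summed target-cycle over summed buffer-cycle Cy3 intensity, averaged per switch-domain sequence; clusters outside 100-1000 RFU were removed.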
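Note: ATP exposure 15 min at 22 °C before imaging.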

Sequence | switch fluorescence ratio
ATTATTTATC | 0.985 ± 0.088
GGCCGCACGC | 3.69 ± 0.059
GGGTTTGATG | 0.984 ± 0.035
GCCCGAGCAG | 1.22 ± 0.062
TAATATAAAC | 1.002 ± 0.0078
CCTAGGGGTG | 1.32 ± 0.27
CGTTTCGTTT | 0.98 ± 0.039
GCGATCAAGG | 1.02 ± 0.012
TCTGGGAATG | 0.983 ± 0.01
AAGGAGGCAG | 1.03 ± 0.045
GGGTTGCCGA | 1.09 ± 0.19
ATTTCAGTCT | 0.977 ± 0.051
GACCTTTAAA | 1.02 ± 0.011
TGGTAATATT | 0.962 ± 0.015
GAATGGGGGG | 1.01 ± 0.078
TAGCGCTGGT | 1.01 ± 0.02
CGCTTATCAT | 0.98 ± 0.03
AGAGTCAACT | 1 ± 0.042
AACCTCATGC | 1.17 ± 0.086
TTGGGGCAAA | 1.06 ± 0.061
GATTTCGGGA | 1.01 ± 0.04
TTACGGAT | 1.06 ± 0.019
TTTTGCTGGT | 1 ± 0.027
CGTACAATGG | 1.28 ± 0.088
ATTGTCGGCT | 1.05 ± 0.18

Sequence | switch fluorescence ratio
GCGTGCAGGG | 1.01 ± 0.025
GATTTCTTAT | 0.999 ± 0.052
TCCAGGGCG | 1.03 ± 0.029
AAGTTTTAAA | 0.968 ± 0.013
TCAAACCGGT | 0.983 ± 0.043
ATGTGTCTGT | 1.01 ± 0.017
ACGTTTTCGG | 0.9837 ± 0.0052
GGGTTTATAT | 0.997 ± 0.022
CCTCAAAGGG | 1.38 ± 0.18
TAGCAGACGG | 1.03 ± 0.015
TGGTGAGGTG | 1.02 ± 0.02
AAAAATTTGG | 1 ± 0.06
CCTGATGGTA | 1.03 ± 0.025
GGGGGCGGGC | 1.01 ± 0.081
TATTCGCCCA | 1.11 ± 0.2
TTACATATGG | 1.024 ± 0.0032
ATTTAATAAT | 0.985 ± 0.018
CAAGGGGGCG | 0.994 ± 0.048
GAAATTGGGT | 0.981 ± 0.018
GGTTTTCGTT | 0.99 ± 0.021
TTTAAAAAGC | 0.996 ± 0.032
CCGGGGGGCG | 0.976 ± 0.053
CGTCATCGCA | 1.2 ± 0.022
ATAGTCATAT | 0.9978 ± 0.0017
CGGTTGGGGT | 0.989 ± 0.0088

Sequence | switch fluorescence ratio
AACGCTATGT | 1.05 ± 0.023
TGTGAGTTTA | 0.978 ± 0.028
ATGTTGACCG | 1.03 ± 0.044
TAGTACTGCT | 1.02 ± 0.015
TTCAGTACCT | 1.19 ± 0.016
GCGAAAACGC | 1.04 ± 0.039
GCGGGGCCAG | 0.982 ± 0.011
TTAGTTATGT | 0.992 ± 0.0093
GATCTATTGT | 0.9619 ± 0.0088
TGGGGGAACC | 1.004 ± 0.0099
GGGTCTAGAG | 1.0295 ± 0.00078
GTCTGAGGCT | 0.9853 ± 0.0076
AACAGTAGCA | 1.03 ± 0.019
TTAAGTGGGT | 0.979 ± 0.061
CTAATTGCCA | 0.994 ± 0.017
CGGAAGTTCT | 0.993 ± 0.049
CGGCCTGTGC | 1.03 ± 0.087
GCATTGGGGG | 0.995 ± 0.041
TCAGTAAATT | 0.965 ± 0.055
GGGGTCAGTC | 0.9933 ± 0.0099
AGTTGATCCC | 1.02 ± 0.025
TTGCTGGGCG | 0.995 ± 0.026
ACTATGAGTT | 0.9975 ± 0.0073
CCATGTTGCT | 0.9612 ± 0.0059
TACGCAGAAT | 3.38 ± 3.2

Sequence | switch fluorescence ratio
CGGGTTATGG | 0.981 ± 0.049
CCAAGAGGAC | 1 ± 0.027
ATTAAGCAT | 1.04 ± 0.053
GTGCTGGGCG | 0.994 ± 0.028
TTGGACCCAT | 1.02 ± 0.02
CAGGAAAGCA | 0.994 ± 0.031
GGTTTAAGTC | 1.06 ± 0.029
CTTGCTTGAG | 1.003 ± 0.0007
TTCCCGAAGT | 1.02 ± 0.04
ACGTGTACGG | 1.03 ± 0.022
CCCGGGGTAC | 2.969 ± 0.027
AGCGATTCTG | 1.02 ± 0.032
TGTAAAATTT | 0.988 ± 0.053
TTAAAGCGTG | 0.969 ± 0.011
GGAAATATTA | 1.04 ± 0.04
TAGGTGCCTT | 1.006 ± 0.0053
TGTATGGCTA | 1.0085 ± 0.00081
GGAGTTTGGT | 1.01 ± 0.056
CCTGTAATTG | 1.03 ± 0.031
GCGACAAGCT | 0.997 ± 0.015
ATTGATACTA | 1.03 ± 0.021
AGTTTGTCAT | 0.967 ± 0.032
GCACACCGAG | 1.083 ± 0.0059
CTCTGAGAGG | 0.9719 ± 0.0043
CTTTTAGTTT | 0.9963 ± 0.0034

Sequence | switch fluorescence ratio
ATTGGATTCA | 1.022 ± 0.0023
TTTCGGGAGC | 0.977 ± 0.049
AGATGAGGTG | 1.01 ± 0.019
CGTTTAATAT | 1 ± 0.033
AAGTTTGGGG | 0.983 ± 0.043
GGGTACGTGT | 0.989 ± 0.029
AGAAGAAGGG | 1.03 ± 0.017
ATCTCGGATT | 0.9869 ± 0.0041
CAGACAGGGG | 1.05 ± 0.02
GTTATTGAAG | 0.982 ± 0.022
AGGTCTACTA | 1.05 ± 0.059
GTAGTCGGGT | 1.006 ± 0.0044
GTTTTGGGTT | 0.977 ± 0.017
ATAGAGTGCG | 0.957 ± 0.024
GTTATTATGG | 1.013 ± 0.0084
CATGTTTTTT | 0.987 ± 0.024
CGCGGGGGGC | 1.05 ± 0.084
CCTGAAGACA | 1 ± 0.02
ATGCTCTTAT | 1 ± 0.012
ATCGCAGGCG | 1.035 ± 0.0068
GGGGCCGTTA | 1.012 ± 0.0042
GGACTTCTGG | 0.998 ± 0.041
TCGGGTTGTA | 1 ± 0.025
TTAGTTGAGT | 1.02 ± 0.028
TTCAAAATGT | 0.997 ± 0.032

Sequence | switch fluorescence ratio
TTTTGGGGAA | 1 ± 0.024
AAGCACTAGG | 1.1916 ± 0.0011
CATAATTTTT | 0.991 ± 0.062
CAAGGGGGTT | 1.02 ± 0.05
CATCGTTTTT | 1.02 ± 0.02
GGATGGGCTG | 1 ± 0.094
ATTCTTATTT | 0.998 ± 0.028
TATGTACGCA | 1.11 ± 0.018
TAAAATAAAG | 0.993 ± 0.033
CATGCAGGGT | 1.04 ± 0.016
AAGGATTTTT | 0.998 ± 0.03
GGTTGTTACG | 0.987 ± 0.033
AATTGTTAGT | 0.994 ± 0.03
AGGATAAGCT | 1.1 ± 0.17
GTAGTTTGAA | 0.989 ± 0.036
GGATCTACCG | 1.01 ± 0.032
ATCGGGAGGA | 1 ± 0.029
GTATAAGGGT | 1.01 ± 0.018
TCCGAGTATG | 1.08 ± 0.027
TAGATTGGAG | 0.987 ± 0.0072
TTTTCTAAAT | 1.04 ± 0.076
GAAATCGCTG | 0.97 ± 0.072
AGAGGGATGG | 0.9919 ± 0.0076
CGGTCTAATT | 0.9989 ± 0.0027
TTTTAAGGAT | 1 ± 0.024

Sequence | switch fluorescence ratio
TTGCACGTAT | 1.08 ± 0.056
TTTGTGTGCG | 0.904 ± 0.047
TTCCCCAGTT | 1.03 ± 0.036
GCTCACTGTG | 1.037 ± 0.0034
TTTTAAGTGC | 1 ± 0.027
GACTGTTCCG | 0.958 ± 0.0055
TAGGAGGCTC | 1.03 ± 0.014
GTGTTCGACG | 0.995 ± 0.056
GGTTCGGGGG | 0.997 ± 0.037
TGGTGTGGGC | 0.985 ± 0.048
GGATCCAAAT | 0.947 ± 0.017
AATGGGGTGT | 0.987 ± 0.021
TTAACAATCG | 1.02 ± 0.02
ATTCAGTAAA | 1 ± 0.022
GATTCAAACG | 1.006 ± 0.0073
ATTCAGTTGC | 1.08 ± 0.072
AATGCGTTTT | 1.04 ± 0.023
AAGGGGGAGG | 0.982 ± 0.034
GGGTGTGCCA | 1 ± 0.027
CGTGGAAGGA | 0.997 ± 0.038
GTAATGTGGG | 0.972 ± 0.022
TAATAGGGCA | 1.002 ± 0.007
CAGAAATTAG | 1.005 ± 0.0024
ATATATTTGT | 1.008 ± 0.0041
TTGAGCCA | 1.01 ± 0.025

Sequence | switch fluorescence ratio
TGGAAGGAAG | 0.9998 ± 0.0073
TATCTTATTT | 0.9874 ± 0.0093
TCTGAGAGGA | 0.972 ± 0.032
CGGCGTAGTC | 1.02 ± 0.035
ATTTGTGGGG | 1.01 ± 0.065
GGGGGTAATA | 0.999 ± 0.021
GAAGGGGCCC | 1.02 ± 0.013
AATCCGTCAT | 1.14 ± 0.017
GTTTAGACGT | 1.01 ± 0.011
ACAGAAAGAC | 1.15 ± 0.27
TCGCGCCGGT | 1.005 ± 0.0062
CTAGGATTAA | 0.985 ± 0.013
TTTCTCTGTT | 1.02 ± 0.011
AAATTGGTTT | 0.995 ± 0.032
AAGAATTGTG | 0.992 ± 0.032
AATTGAAAAT | 0.967 ± 0.0073
ATGGTCATAA | 0.993 ± 0.022
ACGATGCGGG | 1.09 ± 0.025
AGTGGCAGTG | 1 ± 0.022
GAGTCCAGGG | 1.21 ± 0.27
GGTAGTAGAG | 1.02 ± 0.011
ATTGTCGACT | 0.9681 ± 0.0045
CCGTTTCCGG | 1.02 ± 0.027
GGGATTTACG | 1.02 ± 0.019
ACGAGTGAAA | 1.02 ± 0.045
